Laboratory results from article doi:10.1101/2020.09.04.283184 (bioRxiv, 2020).

Biological target: the molecule itself
Test: PORT-HS-AFM

B1: Chlamydomonas reinhardtii SAS-6[NL] homodimer (domain or fragment, UniProt A9CQL4 1-503, looked up)
chain: MPLLLDDGDPKAQTGFDLSTATTLFWRPVPVHVKQQDREDVLEELTFRILTGVAKQNHNLRILRIHISSDSDLFFLHTLEVSEEDFQSLKNDQGILVDFASFPGKIISLLEKCILAQPGDSPRFQAVLTIRGGESVFKIVEINDFKQLPHITLAFRPGNDSVVKQFLAFRLSEVKGTCHDLSDDLSRTRDDRDSMVAQLAQCRQQLAQLREQYDKHLLEVQAQAKTQQASAHEERIREKSQLKDQFEKERGEMEGRYRDQIAALNTRLGELDTENRKLREVKYELDTKVSELSHKLGSSEGSNRSLEEETARLRSLNQQLSSSKHELEIQLNEAKAKVLALDEKAQSQGDVIEQQRGRLRDMEAALRQTEQRCADLRDTLASAEGRAKEAQAEVLKGNQAIEKLTNDLRLAKEKTKRKAAIILRQEEELQEREQSLANATRDVGVLGQQAESLRKDVASLHSENDSLRSKLEDSKQQLQSNEQMIRWLNQQVTEAQLHASGAT
- stoichiometry N: 7 to 10 homodimers
